Results reported in publication PMC5903968.

Target: MMP-2 catalytic domain (MMP-2CAT) (UniProt P08253)
Assay: enzyme inhibition assay

Chain of MMP-2 catalytic domain (MMP-2CAT) (P08253 30-660): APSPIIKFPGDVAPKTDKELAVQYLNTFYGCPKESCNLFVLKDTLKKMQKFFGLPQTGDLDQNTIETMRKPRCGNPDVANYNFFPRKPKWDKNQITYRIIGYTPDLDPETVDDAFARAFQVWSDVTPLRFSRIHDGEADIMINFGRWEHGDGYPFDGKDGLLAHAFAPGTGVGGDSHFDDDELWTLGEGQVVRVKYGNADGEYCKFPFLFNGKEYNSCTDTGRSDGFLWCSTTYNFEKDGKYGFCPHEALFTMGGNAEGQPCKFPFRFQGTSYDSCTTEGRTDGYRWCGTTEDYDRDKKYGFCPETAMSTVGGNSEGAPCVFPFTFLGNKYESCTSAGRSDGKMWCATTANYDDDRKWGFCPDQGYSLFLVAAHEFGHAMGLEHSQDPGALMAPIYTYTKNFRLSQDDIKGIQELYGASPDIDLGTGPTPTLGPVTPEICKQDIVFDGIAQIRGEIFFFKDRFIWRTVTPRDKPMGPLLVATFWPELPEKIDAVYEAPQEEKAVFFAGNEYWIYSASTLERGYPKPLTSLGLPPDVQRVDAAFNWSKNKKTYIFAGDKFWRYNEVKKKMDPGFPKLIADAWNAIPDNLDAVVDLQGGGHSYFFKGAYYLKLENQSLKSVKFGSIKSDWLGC

Ki: 2.65 nM
Substance: N-terminal domain of TIMP-2 (N-TIMP2), wild type (from UniProt P16035 27-152) (domain or fragment)
